Laboratory results as given in PMC7425898, “Human Golgi phosphoprotein 3 is an effector of RAB1A and RAB1B” (PLoS ONE, 2020).

Legend:
[1] = biological target: T1, Recombinant, untagged GOLPH3 (human, UniProt Q9H4A6 1-298); assay: pull-down; GST-RAB1A/B (50 μM) or GST on glutathione-Sepharose 4B, increasing concentrations of recombinant GOLPH3; 20 mM HEPES, 100 mM NaCl, 5 mM MgCl2, 1 mM DTT, 1% CHAPS, pH 7.2; 3 h, 4°C; Coomassie, densitometry, non-linear fit assuming 1:1; apparent KD; conditions: both partners purified
T1 construct: Golgi phosphoprotein 3 (GOLPH3), human, full-length cDNA NM_022130, cloned into pGST-Parallel-1; removal of GST by TEV is surmised from the vector and from the method told for RAB1; also called purified recombinant GOLPH3; not shown: GST, N-terminal, cleaved

[2] = biological target: T2, GST-RAB1B-Q67L (human, UniProt Q9H0U4 1-201, Q67L); assay: pull-down; GST or GST-tagged RAB1A/B variants on glutathione-Sepharose 4B, soluble protein extract of H4 cells (0.5 mg) with protease and phosphatase inhibitors; binding buffer-1; 3 h, 4°C; immunoblot for GOLPH3, densitometry; conditions: one partner purified
T2 construct: RAB1B, human, full length, in pGST-Parallel-1, GTP-locked variant; also called GST-tagged, GTP-locked active state variant of RAB1B; source: E. coli B834(DE3), purified on glutathione-Sepharose 4B

[3] = biological target: T3, GST-RAB1A-Q70L (human, UniProt P62820 1-205, Q70L); assay: as above; conditions: one partner purified
T3 construct: RAB1A, human, full length, in pGST-Parallel-1, GTP-locked variant; also called GST-tagged, GTP-locked active state variant of RAB1A; source: E. coli B834(DE3), purified on glutathione-Sepharose 4B

[4] = biological target: T4, GFP-RAB1A-Q70L (human, UniProt P62820 1-205, Q70L); assay: co-IP; GFP-Trap agarose beads with extracts (0.2 mg) of H4 cells expressing GFP or GFP-RAB1A/B variants, supplemented with extract (0.3 mg) of non-transfected cells; 25 mM Tris-HCl, 50 mM NaCl, 0.1% NP-40, pH 7.5; 1.5-4 h, 4°C; immunoblot for GOLPH3, densitometry; conditions: partners not purified
T4 construct: RAB1A, human, pEGFP construct, GTP-locked variant; also called GFP-tagged GTP-locked active state variant of RAB1A; source: H4 cells, transfected (pEGFP construct), in soluble protein extract

[5] = biological target: T5, GFP-RAB1B-Q67L (human, UniProt Q9H0U4 1-201, Q67L); assay: as above; conditions: partners not purified
T5 construct: RAB1B, human, pEGFP construct, GTP-locked variant; also called GFP-tagged GTP-locked active state variant of RAB1B; source: H4 cells, transfected (pEGFP construct), in soluble protein extract

[6] = biological target: T1, Recombinant, untagged GOLPH3; assay: ITC; GOLPH3 (100 μM) in the chamber, RAB1A or RAB1B (1 mM) injected; 25°C; 50 mM Tris-HCl, 150 mM NaCl, 1 mM DTT, pH 7.4; one-site model; no nucleotide exchange; conditions: both partners purified

T3 sequence (P62820 whole entry Q70L): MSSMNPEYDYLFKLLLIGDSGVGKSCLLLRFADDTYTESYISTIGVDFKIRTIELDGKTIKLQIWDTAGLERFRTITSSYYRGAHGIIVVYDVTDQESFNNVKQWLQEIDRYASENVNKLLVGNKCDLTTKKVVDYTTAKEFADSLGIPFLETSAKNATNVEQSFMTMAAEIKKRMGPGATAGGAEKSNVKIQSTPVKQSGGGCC
T4 sequence (P62820 whole entry Q70L): as above
T5 sequence (Q9H0U4 whole entry Q67L): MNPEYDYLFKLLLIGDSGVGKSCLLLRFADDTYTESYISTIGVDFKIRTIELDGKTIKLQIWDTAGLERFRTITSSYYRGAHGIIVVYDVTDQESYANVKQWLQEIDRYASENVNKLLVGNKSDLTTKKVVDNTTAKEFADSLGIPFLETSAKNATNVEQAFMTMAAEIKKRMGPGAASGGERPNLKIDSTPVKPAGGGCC
T2 sequence (Q9H0U4 whole entry Q67L): as above

Binder	Kd [1]	Kd [6]	stoichiometry N [6]	other results
GST-RAB1A (wild type) (natural protein, RAB1A, human, full length, cloned into pGST-Parallel-1; also called GST-tagged RAB1A; GST-RAB1A/B; source: E. coli B834(DE3), purified on glutathione-Sepharose 4B) not shown	54.7 ± 4.2 µM			
Endogenous GOLPH3 (natural protein, human (endogenous in H4), UniProt Q9H4A6 1-298, looked up, Golgi phosphoprotein 3 (GOLPH3), endogenous in human H4 neuroglioma cells; source: endogenous, H4 human neuroglioma cells, soluble protein extract) MTSLTQRSSGLVQRRTEASRNAADKERAAGGGAGSSEDDAQSRRDEQDDDDKGDSKETRLTLMEEVLLLGLKDREGYTSFWNDCISSGLRGCMLIELALRGRLQLEACGMRRKSLLTRKVICKSDAPTGDVLLDEALKHVKETQPPETVQNWIELLSGETWNPLKLHYQLRNVRERLAKNLVEKGVLTTEKQNFLLFDMTTHPLTNNNIKQRLIKKVQEAVLDKWVNDPHRMDRRLLALIYLAHASDVLENAFAPLLDEQYDLATKRVRQLLDLDPEVECLKANTNEVLWAVVAAFTK				fold of GOLPH3 pulled down against the wild type variant [2]: ~1.1 times; fold of GOLPH3 pulled down against the wild type variant [3]: ~1.2 times; fold of GOLPH3 pulled down against the wild type variant [4]: ~1.2 times; fold of GOLPH3 pulled down against the wild type variant [5]: ~1.1 times

The next lines start with results.

Kd [1]	Kd [6]	stoichiometry N [6]	Binder	other results
	61.9 µM	1	Purified, recombinant RAB1A (natural protein, RAB1A, human, full length, from pGST-Parallel-1, GST removed by TEV protease; source: E. coli B834(DE3), purified (glutathione-Sepharose 4B, TEV cleavage, Ni-NTA, Superdex 200)) not shown	
64.2 ± 3.7 µM			GST-RAB1B (wild type) (natural protein, RAB1B, human, full length, cloned into pGST-Parallel-1; also called GST-tagged RAB1B; GST-RAB1A/B; source: E. coli B834(DE3), purified on glutathione-Sepharose 4B) not shown	
	78.4 µM	1	Purified, recombinant RAB1B (natural protein, RAB1B, human, full length, from pGST-Parallel-1, GST removed by TEV protease; source: E. coli B834(DE3), purified (glutathione-Sepharose 4B, TEV cleavage, Ni-NTA, Superdex 200)) not shown	
